The source of these data is US7048919B2, “Osteoclast secreted chemokine and uses thereof” (The UAB Research Foundation, priority 2000, dated 2006).

Assay [1] concerns mesenchymal stem cells (osteoblast precursors). Briefly: Transwell migration assay of calcein-loaded mesenchymal stem cells. It counts as cell-based. The protocol: Mesenchymal stem cells were loaded in the presence of 5 μM calcein in αMEM, and the cells washed twice with media. Cells were plated at 10,000 cells/well in the upper well of Neuroprobe transwell plates. The concentration dependence of mim-1 in migration assays was determined in the transwell migration assay with the indicated concentrations of mim-1 in the bottom chamber. Cells were cultured for 4 hours at 37° C. in a humidified chamber with 5% CO2. Remaining cells were scraped from the upper well and removed. Migration was measured on a fluorescence plate-reader which measures fluorescence in the bottom well and migration was quantified by comparisons with a standard curve generated by serial dilutions of calcein loaded cells plated directly in the bottom chamber. Data is from a single experiment performed in quadruplicate.

In assay [2] the test system is mesenchymal stem cells. Description: Cell proliferation of osteoblast precursor cells. It counts as cell-based. To be noted: concentrations up to 2 μg/ml.
The test system of assay [3] is p42/44 MAP-kinase in MG63 cells. Briefly: p42/p44 MAP kinase activation, phospho-specific Western blot. Type of assay: cell-based, human. The protocol:
Cells were treated with 2 μg/ml of purified mim-1 for the indicated times, washed, lysed and 25 […] protein resolved on 10% SDS PAGE. Protein was transferred to PVDF membrane and the membranes probed with phospho-specific p42/p44 MAP kinase antibody (New England Biolabs).
Mim-1 also stimulated the increased p42/44 MAP-kinase phosphorylation in a time-dependent manner in MG63 cells. The time dependence of mim-1 activation of MAP kinase by Western analysis with the phospho specific MAP kinase antibody was tested. This antibody detects only the phosphorylated (activated) form of MAP kinase (FIG. 16). Mim-1 stimulates the time dependent activation of MAP kinase with maximal effects at 3 minutes (compare this with 2 μg/ml in FIG. 15). The concentration dependence for activation of MAP kinase was maximal at 1–2 μg/ml (not shown) similar to the effects of mim-1 on tyrosine phosphorylation (FIG. 15).
(A western blot detects proteins with antibodies after separation by electrophoresis.)

Assay [4] has as its system cbfal binding to osteocalcin promoter in MG63 cells. Briefly: cbfal binding to osteocalcin promoter site, electrophoretic mobility shift assay. Type of assay: cell-based, human. The protocol:
FIG. 17A show cells treated with 2 μg/ml of purified mim-1 for 0, 10, 30, 60, 120, and 240 min washed, lysed and nuclear extracts prepared. A 27 bp oligonucleotide from the osteocalcin proximal cbfal binding site was 5′ end labeled with γ^32P-ATP by T4 kinase. Equivalent amounts of nuclear extracts were incubated with the probe for 30 min and samples resolved on a 5% gel, fixed, dried and binding visualized by autoradiography.
Cells were treated with 2 μg/ml of purified mim-1 for 0, 10, 30, 60, 120, and 240 min, washed, lysed and nuclear extracts prepared. A 27 bp oligonucleotide from the osteocalcin proximal cbfal binding site was 5′ end labeled with ^32P-ATP by T4 kinase. Equivalent amounts of nuclear extracts were incubated with the probe for 30 min and samples resolved on a 5% gel, fixed, dried and binding visualized by autoradiography for specific binding.
Similarly, cells were treated with 0, 0.02, 0.3 and 2.0 μg/ml of mim-1 for 2 hrs and mobility shifts done as discussed.
Background: In EMSA bound probe runs differently from free probe, usually more slowly.

Assay [5] deals with Vitamin D receptor binding to the VDRE in MG63 cells. Description: Vitamin D receptor binding to the VDRE, electrophoretic mobility shift assay. Type of assay: cell-based, human. To be noted: 2 μg/ml mim-1, absence of added 1,25(OH)2 D3. On the procedure:
Competitive displacement (CD) of vitamin D receptor interaction by 100× of cold probe. […] CD is competitive displacement as in FIG. 18A and NS is incubaton with 100× NonSpecific probe (vitellogenin estrogen response element), both were included as controls with 2 hr mim-1 extracts.
Double stranded oligonucleotide probe, corresponding to the VDRE from the human osteocalcin promoter, is ^32P-labeled with T4 kinase and incubated with nuclear extracts from MG-63 cells treated with 2 μg/ml of mim-1 for 0, 10, 30, 60 and 120 minutes, respectively. Vitamin D receptor interaction was displaced competitively by 100× of cold probe. The cells were then treated with mim-1 for 2 to 3 hrs and VDR/VDRE supershifted with a 1:5 or 1:10 dilution of VDR polyclonal antibody 4707. Competitive displacement with cold probe and incubaton with 100× vitellogenin estrogen response element as a non-specific probe were included as […] controls with 2 hr mim-1 extracts. VDR/VDRE from MG63 cells was compared to recombinant VDR heterodimer (rVDRhd).

Assay [6] relates to MC3T3-E1 cells. Briefly: In vitro matrix mineralization (VonKossa staining, total calcium). It counts as cell-based. The following applies: 16 days. The protocol:
MC3T3-E1 cells (2.5×10^4 cells/well) were cultured in DMEM/F12 plus 1% FBS in the presence of 10 mM glycerophosphate, 50 μg/ml ascorbic acid and either, 0, 3 or 15 nM (FIGS. 19A–C, respectively) of purified mim-1 for 16 days. […] 200× magnification, data is representative of n=2 experiments. VonKossa staining was confirmed by measuring total calcium in each well. Calcium was acid hydrolyzed, neutralized and measured on a Kodak Ektachem DTSC II and the results illustrated in the bar graph at the right. Calcium measurements are representative single determinations from 2 separate experiments.
MC3T3-E1 cells, seeded at 2.5×10^4 cells/well, were cultured in DMEM/F12 plus 1% FBS in the presence of 10 mM glycerophosphate, 50 μg/ml ascorbic acid and either 0, 3 or 15 nM of purified mim-1 for 16 days. […] VonKossa staining was confirmed by measuring total calcium in each well. The calcium was acid hydrolyzed, neutralized and measured on a Kodak Ektachem DTSC II.

The test system of assay [7] is human bone marrow cells. Briefly: FACS analysis of human bone marrow cell cultures (CD14+). To be noted: 2 μg/ml mim-1, 3 days. It counts as cell-based. The protocol: Human bone marrow cells were cultured in IMDM with GM-CSF (50 ng/ml), IL3 (10 ng/ml) and 20 ng/ml SCF (controls) for 3 days −/+2 […] mim-1 and analyzed by FACS analysis. The remaining cells were cultured in colony formation assays an additional 14 days with the same growth factors minus or plus 2 μg/ml mim-1. Data is the average −/+ SEM of 3 separate experiments.
Human bone marrow cells were cultured in IMDM with GM-CSF (50 ng/ml), IL3 (10 ng/ml) and […] SCF (controls) for 3 days with or without 2 μg/ml mim-1. The cells were analyzed by FACS analysis. The remaining cells were cultured in colony formation assays an additional 14 days with the same growth factors with or without 2 μg/ml mim-1.

Assay [8] concerns A549, lung cancer. Description: Cancer cell growth inhibition, cell counts. Type of assay: cell-based, human. The following applies: A549, three days, 0.5-4 μg/ml mim-1. The protocol:
(§1) Cancer cells (A549, lung cancer; MDA231, Breast cancer; and AD10, ovarian cancer) were cultured for three days in the presence of the indicated concentrations of mim-1. Cells were counted in 10 random grids, and the data is plotted as Percent of Control (no added mim-1). Data are representative of 2 separate experiments.
(§2) Three cancer cell lines (A549, lung cancer; MDA231, breast cancer; and AD10, ovarian cancer) were cultured for three days in the presence of 0 (control), 0.5, 1, 2 and 4 μg/ml of mim-1. Cells were counted in 10 random grids, and the data is plotted as Percent of Control (no added mim-1).

Assay [9] has as its system AD10, ovarian cancer. Briefly: Cancer cell growth inhibition, cell counts. Type of assay: cell-based, human. The following applies: AD10, three days, 0.5-4 μg/ml mim-1. On the procedure:
as §1, §2

Assay [10] concerns MDA231, breast cancer. Briefly: Cancer cell growth inhibition, cell counts. It counts as cell-based, human. To be noted: MDA231, three days, 0.5-4 μg/ml mim-1. On the procedure:
as §1, §2

For assay [11], the system named is mouse marrow macrophage. Description: Osteoclast-like cell differentiation, mouse marrow macrophage differentiation model. Type of assay: cell-based. To be noted: presence of M-CSF and soluble RANKL.

B1: mim-1: 35 kD osteoclast secreted chemokine-like protein, SEQ ID NO: 8, homologous with Lect2 (protein, listed as Gallus gallus)
chain: MPALSLIALLSLVSTAFARQWEVHPPQQQGRHWAQICSGNPFNRIRGCDRYGCGNYGASRQGKGEKHKGVDVICTDGSIVYAPFWGQLSGPIRFFHNGNAIDDGVQISGSGYCVKLVCIHPIRYHGQIQKGQQLGRMLPMQKVFPGIVSHIHVENCDQSDPTHLLRPIPDISPPFPQQDAHWAVVCAGNPTNEIRGCKDYGCGYFGAPRRNGKGEKHKGVDVICADGATVYAPFSGELSGPVKFFHNGNAIDDGVGIRGSGFCVKLLCIHPIRYNGRISKGQVLGRMLPMQRVFPGIISHIHVENCDRSDPTSNLERGKGESEMEV
modifications: amino acid sequence of mim-1 protein
Consider B1, for which the “concentration of maximal effect on mesenchymal stem cell migration” value in assay [1] (4 hours, purified mim-1 in bottom chamber) was “approximately 100 ng/ml”. Further, in assay [1] (migration versus tyrosine phosphorylation), the “concentration to stimulate migration lower than that to stimulate tyrosine phosphorylation” value was “five- and ten-fold”. In [2], the “effect on cell proliferation” value was “no effect”. Moreover, the “time of maximal activation of MAP kinase” value in [3] (2 μg/ml mim-1) stood at 3 min. Further, the “concentration of maximal activation of MAP kinase” value in [3] (not shown) lay in the range of 1 to 2 µg/mL. Also, the “cbfal binding above control levels” value in assay [4] (20 ng/ml mim-1, 2 hrs) is around 2 fold. Further, the “concentration to stimulate cbfal binding lower than that to stimulate tyrosine phosphorylation” value in assay [4] (20 ng/ml versus tyrosine phosphorylation) is 5–10 fold. In addition, the “time of maximal cbfal binding” value in [4] (2 μg/ml mim-1) stood at 2 h. The “increase in binding of cbfal transcription factor to osteocalcin oligonucleotide probe” value in assay [4] (2 μg/ml mim-1, MG63 cells) is given as “five-fold”. For the same molecule, the “decrease in cbfal binding from maximum” value in assay [4] (2 μg/ml mim-1, by 4 hours) is recorded as around 30%. Besides, in assay [5], the “Vitamin D receptor binding to the VDRE” value was “stimulated Vitamin D receptor binding to the VDRE in a time dependent manner”. Moreover, the “concentration of maximal effect on mineralization” value in assay [6] came out at 0.5 µg/mL. Besides, the “proportion of CD14+ cells” value in assay [7] is reported as “increase in the proportion of cells that are CD14^+”. The “inhibition of cell growth” value in [8], in assay [9] and in assay [10] was “concentration dependent inhibition of cell growth” each time. Besides, the osteoclast-like cell differentiation result in [11] was “effectively blocks osteoclast-like cell differentiation”.
